# Measured values reported in the supplement of paper PMC9732359.
# ± gives the uncertainty stated by the source.
# Assay: protein stability index of a GFP-peptide fusion (yeast GPS) (PSI 1-4); higher = more stable; sorted into four equal gates, so the index is relative within each strain
# How it was run: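 For each peptide, the protein stability index sums the read frequency in every gate after multiplying it by the gate number. Read frequencies came from plasmids that were PCR-amplified from each gate and Illumina-sequenced, with reads assigned to strains by barcodes. The gates were four equal bins of GFP/Cherry fluorescence ratio applied to mid-log yeast in leucine-free medium carrying a pooled library of tiled 17-residue yeast protein peptides fused downstream of GFP on a Cherry-expressing plasmid.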
sequence,measurement,setting,value
AFRTLRLARSEKKFRGI [RPL13A],protein stability index,doa10∆,3.4 ± 0.24
same,protein stability index,pdr5∆,3.49 ± 0.15
same,protein stability index,ubr1∆,3.3 ± 0.084
VEWNDQVEKLGKKMEAR [RPN9],protein stability index,pdr5∆,3.28 ± 0.15
same,protein stability index,san1∆,3.29 ± 0.12
same,protein stability index,ubr1∆,3.34 ± 0.14
TFTQLVSSSLYERRFGP [PUP3],protein stability index,doa10∆,2.79 ± 0.12
same,protein stability index,pdr5∆,2.94 ± 0.16
same,protein stability index,san1∆,2.73 ± 0.12
same,protein stability index,ubr1∆,2.94 ± 0.092
PNRLVKELQYDNEQNLE [PRE2],protein stability index,pdr5∆,2.97 ± 0.099
same,protein stability index,san1∆,2.8 ± 0.094
same,protein stability index,ubr1∆,3.08 ± 0.073
GVYKRDNRTKSTTIKNI [SMC4],protein stability index,doa10∆,1.62 ± 0.06
same,protein stability index,pdr5∆,1.54 ± 0.062
same,protein stability index,san1∆,1.33 ± 0.14
same,protein stability index,ubr1∆,1.23 ± 0.075
ENENILIKAKNFLVFQG [SMC1],protein stability index,doa10∆,1.22 ± 0.094
same,protein stability index,pdr5∆,1.25 ± 0.12
same,protein stability index,san1∆,1.96 ± 0.22
same,protein stability index,ubr1∆,1.17 ± 0.11
AALRTVKSLVDNMITGV [RPL9A],protein stability index,doa10∆,2.5 ± 0.091
same,protein stability index,pdr5∆,3.17 ± 0.076
same,protein stability index,san1∆,2.99 ± 0.071
same,protein stability index,ubr1∆,3.03 ± 0.075
SLVFNRKLAVERAGHLL [PRE5],protein stability index,doa10∆,2.08 ± 0.2
same,protein stability index,pdr5∆,1.5 ± 0.18
same,protein stability index,san1∆,1.43 ± 0.19
same,protein stability index,ubr1∆,1.71 ± 0.21
QIANEFNTQQGIKKHSL [YDL116W/NUP84],protein stability index,doa10∆,3.01 ± 0.055
same,protein stability index,pdr5∆,3.3 ± 0.049
same,protein stability index,san1∆,3.18 ± 0.04
same,protein stability index,ubr1∆,3.11 ± 0.038
NKQYHQANSNLTLLERK [NUT1],protein stability index,doa10∆,2.34 ± 0.054
same,protein stability index,pdr5∆,2.77 ± 0.055
same,protein stability index,san1∆,2.59 ± 0.082
same,protein stability index,ubr1∆,2.83 ± 0.066
VFGISKTSSGSYNYVEN [ITC1],protein stability index,doa10∆,3.33 ± 0.083
same,protein stability index,pdr5∆,3.12 ± 0.073
same,protein stability index,san1∆,3.17 ± 0.06
same,protein stability index,ubr1∆,3.28 ± 0.041
NPDDDYGFKQEIFDVTS [FAS1],protein stability index,doa10∆,3.38 ± 0.25
same,protein stability index,pdr5∆,3.45 ± 0.11
same,protein stability index,san1∆,3.17 ± 0.1
same,protein stability index,ubr1∆,3.31 ± 0.055
LHGLRSFYDAIFFNIPL [YJL039C/NUP192],protein stability index,doa10∆,2.61 ± 0.039
same,protein stability index,pdr5∆,2.24 ± 0.042
same,protein stability index,san1∆,2.309 ± 0.022
same,protein stability index,ubr1∆,1.9 ± 0.034
IRGKILTGTVVSTKMHR [RPS11A],protein stability index,doa10∆,3 ± 0.066
same,protein stability index,pdr5∆,2.99 ± 0.051
same,protein stability index,san1∆,2.79 ± 0.052
same,protein stability index,ubr1∆,2.9 ± 0.039
NDEVNEDEEDDNISSFH [YCG1],protein stability index,doa10∆,3.18 ± 0.12
same,protein stability index,pdr5∆,3.28 ± 0.12
same,protein stability index,san1∆,3.31 ± 0.074
same,protein stability index,ubr1∆,3.33 ± 0.12
GTIDKLQLELTIEDIAV [RPO31],protein stability index,doa10∆,2.41 ± 0.064
same,protein stability index,pdr5∆,2.79 ± 0.057
same,protein stability index,san1∆,2.3 ± 0.053
same,protein stability index,ubr1∆,2.54 ± 0.046
MLTIARLGFFYNDQLYV [RPN7],protein stability index,doa10∆,2.13 ± 0.093
same,protein stability index,pdr5∆,1.66 ± 0.19
same,protein stability index,san1∆,1.47 ± 0.29
same,protein stability index,ubr1∆,2.2 ± 0.19
KMIILDKLLKRLKEKGS [ISW2],protein stability index,doa10∆,1.58 ± 0.049
same,protein stability index,pdr5∆,1.32 ± 0.061
same,protein stability index,san1∆,1.35 ± 0.12
same,protein stability index,ubr1∆,1.44 ± 0.055
ANSSITPAFGSNNTGNT [YJL041W/NSP1],protein stability index,doa10∆,2.65 ± 0.068
same,protein stability index,pdr5∆,2.86 ± 0.049
same,protein stability index,san1∆,2.72 ± 0.048
same,protein stability index,ubr1∆,2.87 ± 0.031
PTFSTHAQLLLSDRITG [PRP8],protein stability index,doa10∆,1.7 ± 0.033
same,protein stability index,pdr5∆,1.87 ± 0.036
same,protein stability index,san1∆,1.57 ± 0.051
same,protein stability index,ubr1∆,1.95 ± 0.031
LITLFNKGELETQPGCN [RPO31],protein stability index,doa10∆,2.71 ± 0.1
same,protein stability index,pdr5∆,3.26 ± 0.083
same,protein stability index,san1∆,2.98 ± 0.097
same,protein stability index,ubr1∆,2.94 ± 0.11
ECPAIPIFNYIFTEKIY [YJL039C/NUP192],protein stability index,doa10∆,1.34 ± 0.035
same,protein stability index,pdr5∆,1.46 ± 0.038
same,protein stability index,san1∆,1.43 ± 0.071
same,protein stability index,ubr1∆,1.4 ± 0.034
CFICLLHLANEHGLQIT [BRN1],protein stability index,doa10∆,2.54 ± 0.12
same,protein stability index,pdr5∆,2.81 ± 0.17
same,protein stability index,san1∆,2.61 ± 0.17
same,protein stability index,ubr1∆,2.87 ± 0.087
SLKDLSSLRNQELLNAE [RPN3],protein stability index,pdr5∆,2.15 ± 0.22
same,protein stability index,san1∆,3.34 ± 0.14
QTATQLLERGRLRKRVT [SMC2],protein stability index,doa10∆,3.04 ± 0.11
same,protein stability index,pdr5∆,3.04 ± 0.083
same,protein stability index,san1∆,2.92 ± 0.064
same,protein stability index,ubr1∆,2.42 ± 0.078
ANLRVLNSYWVNQDSTY [RPL15A],protein stability index,doa10∆,2.62 ± 0.072
same,protein stability index,pdr5∆,2.23 ± 0.067
same,protein stability index,san1∆,2.78 ± 0.058
same,protein stability index,ubr1∆,2.37 ± 0.064
ANAVQNNNGNSAASKKK [SRP21],protein stability index,doa10∆,3.06 ± 0.11
same,protein stability index,pdr5∆,3.29 ± 0.11
same,protein stability index,san1∆,2.96 ± 0.092
same,protein stability index,ubr1∆,2.93 ± 0.11
LPAAVSKSLQESGDTQE [RPC82],protein stability index,doa10∆,2.37 ± 0.096
same,protein stability index,pdr5∆,2.74 ± 0.11
same,protein stability index,san1∆,2.97 ± 0.059
same,protein stability index,ubr1∆,2.83 ± 0.093
WSKTIKARTNLHQHVVL [RPC34],protein stability index,doa10∆,2.11 ± 0.1
same,protein stability index,pdr5∆,1.8 ± 0.1
same,protein stability index,san1∆,1.71 ± 0.21
same,protein stability index,ubr1∆,2.34 ± 0.064
KYLSDIMELPGVYSDDE [SRP68],protein stability index,doa10∆,3.14 ± 0.25
same,protein stability index,pdr5∆,3.08 ± 0.17
same,protein stability index,san1∆,3.59 ± 0.17
same,protein stability index,ubr1∆,3.36 ± 0.11
PTLPRSDRECPKCHSRE [RPB9],protein stability index,doa10∆,2.79 ± 0.052
same,protein stability index,pdr5∆,2.92 ± 0.056
same,protein stability index,san1∆,2.82 ± 0.053
same,protein stability index,ubr1∆,2.84 ± 0.043
FVNGVATSFSRKKARTF [FAS2],protein stability index,doa10∆,1.85 ± 0.12
same,protein stability index,pdr5∆,1.76 ± 0.11
same,protein stability index,san1∆,1.22 ± 0.23
same,protein stability index,ubr1∆,1.14 ± 0.074
SQFNGSGNGSNPNTNTN [PGD1],protein stability index,doa10∆,2.48 ± 0.072
same,protein stability index,pdr5∆,2.68 ± 0.068
same,protein stability index,san1∆,2.84 ± 0.076
same,protein stability index,ubr1∆,2.89 ± 0.034
GLFPFESYKPSVQLPDM [SWI3],protein stability index,doa10∆,3.05 ± 0.09
same,protein stability index,pdr5∆,2.88 ± 0.081
same,protein stability index,san1∆,2.96 ± 0.067
same,protein stability index,ubr1∆,2.81 ± 0.07
PLAKIYLEENKSDSQYR [MED1],protein stability index,doa10∆,3.15 ± 0.086
same,protein stability index,pdr5∆,3.18 ± 0.065
same,protein stability index,san1∆,3.15 ± 0.059
same,protein stability index,ubr1∆,3.16 ± 0.06
VSMKANKYQIKKAVKEL [RPL25],protein stability index,doa10∆,1.18 ± 0.065
same,protein stability index,pdr5∆,1.52 ± 0.07
same,protein stability index,san1∆,2.98 ± 0.056
same,protein stability index,ubr1∆,2.97 ± 0.071
SQSSNANICLTFLESIN [SIN4],protein stability index,doa10∆,2.42 ± 0.048
same,protein stability index,pdr5∆,2.61 ± 0.054
same,protein stability index,san1∆,2.55 ± 0.05
same,protein stability index,ubr1∆,2.74 ± 0.048
RCIGDSDNVSFEIQGVP [YMR129W/POM152],protein stability index,doa10∆,3.17 ± 0.1
same,protein stability index,pdr5∆,3.39 ± 0.085
same,protein stability index,san1∆,3.28 ± 0.059
same,protein stability index,ubr1∆,3.35 ± 0.06
KLLDNIQEYQLCDNFNH [COR1],protein stability index,doa10∆,2.35 ± 0.074
same,protein stability index,pdr5∆,2.31 ± 0.091
same,protein stability index,san1∆,2.44 ± 0.086
same,protein stability index,ubr1∆,2.2 ± 0.064
PERFMVFQLPTRLPAFE [RPC53],protein stability index,doa10∆,2.31 ± 0.065
same,protein stability index,pdr5∆,2.75 ± 0.054
same,protein stability index,san1∆,2.54 ± 0.089
same,protein stability index,ubr1∆,2.79 ± 0.058
RASKALIERYYPKLTLD [RPS17A],protein stability index,pdr5∆,2.51 ± 0.14
same,protein stability index,ubr1∆,2.37 ± 0.25
RILNFFDKNTKTTPNTA [YMR153W/NUP53],protein stability index,doa10∆,2.42 ± 0.051
same,protein stability index,pdr5∆,2.53 ± 0.055
same,protein stability index,san1∆,2.56 ± 0.048
same,protein stability index,ubr1∆,2.43 ± 0.047
EDDNNNVEKPSSKPAFN [YLR335W/NUP2],protein stability index,doa10∆,3.12 ± 0.061
same,protein stability index,pdr5∆,3.2 ± 0.071
same,protein stability index,san1∆,3.14 ± 0.049
same,protein stability index,ubr1∆,3.2 ± 0.063
LKNVEETQEIKENDTVM [ESC2],protein stability index,doa10∆,2.86 ± 0.097
same,protein stability index,pdr5∆,3 ± 0.075
same,protein stability index,san1∆,2.92 ± 0.14
same,protein stability index,ubr1∆,3.16 ± 0.074
KLHMGTEDVRLAPELNQ [RPL31B],protein stability index,doa10∆,2.81 ± 0.061
same,protein stability index,pdr5∆,3 ± 0.067
same,protein stability index,san1∆,2.86 ± 0.049
same,protein stability index,ubr1∆,3.05 ± 0.04
LKAKNQEEEGELEHLTK [DSN1],protein stability index,doa10∆,3.42 ± 0.076
same,protein stability index,pdr5∆,3.35 ± 0.066
same,protein stability index,san1∆,3.31 ± 0.047
same,protein stability index,ubr1∆,3.39 ± 0.047
SIDNDFSEEKAEEFDFN [YAR002W/NUP60],protein stability index,doa10∆,3.19 ± 0.14
same,protein stability index,pdr5∆,3.02 ± 0.11
same,protein stability index,san1∆,3.17 ± 0.092
same,protein stability index,ubr1∆,3.12 ± 0.1
EIRRFQKSTELLIRKLP [HHT1],protein stability index,doa10∆,2.64 ± 0.13
same,protein stability index,pdr5∆,2.74 ± 0.095
same,protein stability index,san1∆,1.87 ± 0.24
same,protein stability index,ubr1∆,2.25 ± 0.12
ETTTQFKATHILDFGPG [FAS1],protein stability index,doa10∆,2.44 ± 0.081
same,protein stability index,pdr5∆,2 ± 0.094
same,protein stability index,san1∆,2.16 ± 0.084
same,protein stability index,ubr1∆,2.25 ± 0.054
AFETHYRRLFAKRLIHG [CDC53],protein stability index,doa10∆,2.46 ± 0.076
same,protein stability index,pdr5∆,2.54 ± 0.071
same,protein stability index,san1∆,2.8 ± 0.09
same,protein stability index,ubr1∆,2.89 ± 0.071
ITSWYENHNKGKLWKDV [QCR9],protein stability index,doa10∆,2.81 ± 0.21
same,protein stability index,pdr5∆,3.14 ± 0.23
same,protein stability index,san1∆,3.3 ± 0.1
same,protein stability index,ubr1∆,3.21 ± 0.13
YLEENKSDSQYRFYEYI [MED1],protein stability index,doa10∆,3.04 ± 0.063
same,protein stability index,pdr5∆,3.06 ± 0.062
same,protein stability index,san1∆,3.12 ± 0.069
same,protein stability index,ubr1∆,3.13 ± 0.086
VDPEQEAHNKALNQFKR [RPT4],protein stability index,doa10∆,3.37 ± 0.19
same,protein stability index,pdr5∆,3.26 ± 0.13
same,protein stability index,san1∆,3.41 ± 0.11
same,protein stability index,ubr1∆,3.02 ± 0.14
